# Source: patent US20230279079A1 (CHANG GUNG MEMORIAL HOSPITAL LINKOU, published 2023)
# Substitutions are numbered along the chain they refer to.
# B1: FB 9D (antibody, V domains shown)
# VH: QVQLVESGAEVKKPGESLKISCQGSGYRFNSYWIAWVRQMPGKGLEWMGSIFPTDSDVRYNPSFQGQVTISADKSISFAYLQWSSLKASDTAIYYCARHWASMVRGVIRASHYYGMDVWGQGTTVTVSS
# VL: QPVLTQPPSASGSPGQSVTISCSGASSDIGKYNYVSWYQQLPGKAPKLLIYEVTKRPSGVPDRFSGSKSGNTASLTVSGLQADDEADYYCSSYAFGGSDTRVFGGGTKLTVL
# B2: FN 2C (antibody, V domains shown)
# VH: EVQLLESGGGVVQPGRSLRLSCAASGFNFNNYGMHWVRQAPGKGLEWVATISYEGSKKFYVDSVKGRFTISKDNSKNTLYLQMNSLRVDDTAFYYCAKRREIFWLGEPPLSDAFDFWGQGTMVTVSS
# VL: QSVLTQPPSVSGAPGQRVTISCTGSGSNIGAGYDVHWYQFLPGTAPQLLIYGNNNRPSGVPDRFSGSKSGTSASLAITGLQAEDEADYYCQSYDSSLSGSVFGGGTKLTVL
# B3: FD 11D (antibody, V domains shown)
# VH: EVQLVESGGGVVQPGRSLRLSCAASGFTFSSYGMHWVRQAPGKGLEWVAVISYDGSNKYYADSVKGRFTISRDNSKNTLYLQMNSLRAEDTAVYYCAKEGAGSGWYRHHKPGYYFDYWGQGTLVTVSS
# VL: not shown
# B4: FG 12C (antibody, V domains shown)
# VH: EVQLVESGGGLVQPGRSLRLSCAASGFTFDDYAMHWVRQAPGKGLEWVSGISWNSGSIGYADSVKGRFTISRDNAKNSLYLQMNSLRAEDTALYYCAKDMRVHDYGDYYFDYWGQGTLVTVSS
# VL: SYELTQPPSVSVAPGKTARITCGGNNIGSKSVHWYQQKPGQAPVLVIYYDSDRPSGIPERFSGSNSGNTATLTISRVEAGDEADYYCQVWDSSSDHPVFGGGTKLTVL
# B5: FN 8C (antibody, V domains shown)
# VH: QVQLVESGGGVVQPGRSLRLSCAASGFTFSSYGMHWVRQAPGKGLEWVAVISYDGSNKYYADTVKGRFTISRDNSKNTLYLQMNSLRAEDTAVYYCARERTYYDILTGYRHYYGMDVWGQGTTVTVSS
# VL: B4 VL with K16Q, I47V, Y49D, P97W
# B6: FD 7C (antibody, V domains shown)
# VH: QLQLQESGPGLVKPSETLSLTCTVSGGSISSYYWSWIRQPPGKGLEWIGYIYYSGSTNYNPSLKSRVTISVDTSKNQFSLKLSSVTAADTAVYYCARDYRFGELFGRFAWFDPWGQGTLVTVSS
# VL: not shown
# B7: FD 1E (antibody, V domains shown)
# VH: EVQLLESGGGLVKPGGSLRLSCAASGFTFSSYSMNWVRQAPGKGLEWVSSISSSSSYIYYADSVKGRFTISRDNAKNSLYLQMNSLRAEDTAVYYCASLAAAGPETYYYYGMDVWGQGTMVTVSS
# VL: not shown
# B8: FD 11E (antibody, V domains shown)
# VH: B7 VH with L5V
# VL: not shown
# B9: FD 11C (antibody, V domains shown)
# VH: EVQLLESGPGLVKPSETLSLTCTVSGGSISSSSYYWGWIRQPPGKGLEWIGSIYYSGSTYYNPSLKSRVTISVDTSKNQFSLKLSSVTAADTAVYYCAREYYYGSETKKYYYYYGMDVWGQGTTVTVSS
# VL: not shown
# B10: FJ 1C (antibody, V domains shown)
# VH: QVQLQESGPGLVKPSETLSLTCTVSGYSISSGYYWGWIRQPPGKGLEWIGSIYHSGSTYYNPSLKSRVTISVDTSKNQFSLKLSSVTAADTAVYYCARDKALLWFGELFTNLFDYWGQGTLVTVSS
# VL: QSALTQPASVSGSPGQSITISCTGTSSDVGGYNYVSWYQQHPGKAPKLMIYEVSNRPSGVSNRFSGSKSGNTASLTISGLQAEDEANYYCSSYTSSSTLVFGGGTKLTVL
# B11: FD 8B (antibody, V domains shown)
# VH: EVQLLESGAEVKKPGASVKVSCKVSGYTLTELSMHWVRQAPGKGLEWMGGFDPEDGETIYAQKFQGRVTMTEDTSTDTAYMELSSLRSEDTAVYYCATAAAINCSSTSCYYYYYYYGMDVWGQGTTVTVSS
# VL: not shown
# B12: FD 7D (antibody, V domains shown)
# VH: EVQLVESGAEVKKPGESLRISCKGSGYSFTSYWISWVRQMPGKGLEWMGRIDPSDSYTNYSPSFQGHVTISADKSISTAYLQWSSLKASDTAMYYCARHSDCSSTSCYFVDAFDIWGQGTMVTVSS
# VL: not shown
# B13: FI 1C (antibody, V domains shown)
# VH: EVQLVESGGGLVKPGGSLRLSCAASGFTFSDYYMSWIRQAPGKGLEWVSYISSSGSTIYYADSVKGRFTISRDNAKNSLYLQMNSLRAEDTAVYYCARRSNRFLIAFDIWGQGTMVTVSS
# VL: QSALTQPASVSGSPGQTITISCTGTSSDVGGYNYVSWYQQHPGKAPKLMIYEVSNRPSGVSNRFSGSKSGNTASLTISGLQAEDEADYYCSSYTSSSTLVVFGGGTKLTVP
# B14: EY 6A-1 (antibody, V domains shown)
# VH: EVQLVESGGGVVQPGRSLRLSCAASAFTFSSYDMHWVRQAPGKGLEWVAVISYDGSNKYYADSVKGRFTISRDNSKNTLYLQMNSLRAEDTAVYYCAKDGGKLWVYYFDYWGQGTLVTVSS
# VL: not shown
# B15: EZ 4A (antibody, V domains shown)
# VH: EVQLVQSGAEVKKPGESLKISCKGSGYSFTSYWIGWVRQMPGKGLEWMGIIYPGDSDTRYSPSFQGQVTISADKSISTAYLQWSSLKASDTAMYYCARSPIAADLFDYWGQGTLVTVSS
# VL: not shown
# B16: EY 8A (antibody, V domains shown)
# VH: EVQLVESGPGLVKPSQTLSLTCTVSGGSISSGSYYWSWIRQPAGKGLEWIGRIYTSGSTNYNPSLKSRVTISVDTSKNQFSLKLSSVTAADTAVYYCAKGHVISGYDDYYYYYGMDVWGQGTTVTVSS
# VL: not shown
# B17: EZ 4C kappa (antibody, V domains shown)
# VH: EVQLVESGPGLVKPSETLSLTCTVSGGSVSSGNNYWSWIRQPPGKALEWIGYIYYSGSTKYNPSLKSRVTMSVGTSKNQFSLKVNSVTAADTAMYYCARAPSAPFGGLFDWILPKGINNWGQGTLVTVSS
# VL: EIVLTQSPSTLSASVGDRVTITCRTSQSIRSWLAWYQQKPGKAPKLLIFEASTLESGVPERFSGSGSGAEFTLTISSLQPDDFATYYCQQYNGYSYSFGQGTKVEIR
# notes: also called EZ 4C-1
# B18: EZ 7B (antibody, V domains shown)
# VH: EVQLVESSPGLVKPSETLSLTCTVSGGSISSYYWSWIRQPPGKGLEWIGYIYYSGSTNYNPSLKSRVTISVDTSKNQFSLKLSSVTAADTAVYYCARRVFGPVLPSKLGGSYWGGGAFDIWGQGTMVTVSS
# VL: not shown
# B19: EY 5A (antibody, V domains shown)
# VH: EVQLVESGPGLVKPSGTLFLTCTVSGGSISNYYWSWIRQPPGKALEWIGFIYSNGNTDYNPSLQSRVTISGDTSKNQFSLNLRSVTAADTAVYYCARGPGPATGGSLDYWGQGTMVTVSS
# VL: not shown
# Target: T1, SARS-CoV-2 spike S1 subunit (SARS-CoV-2, UniProt P0DTC2 16-685)
# T1 construct: domain: S1 subunit
# Assay: ELISA
row,Binder,binding result
1,B1,no binding
2,B2,no binding

# Target: T2, SARS-CoV-2 spike receptor binding domain (RBD) (SARS-CoV-2, UniProt P0DTC2 319-541)
# T2 construct: also called SARS-CoV-2 RBD
# Assay: ELISA
row,Binder,binding result
1,B1,no binding
2,B2,no binding
3,B3,no binding
4,B4,no binding
5,B5,no binding
6,B6,no binding
7,B7,no binding
8,B8,no binding
9,B9,no binding
10,B10,no binding
11,B11,no binding
12,B12,no binding

# Target: T3, SARS-CoV-2 spike S2 subunit (SARS-CoV-2, UniProt P0DTC2 686-1213)
# T3 construct: domain: S2 subunit
# Assay: ELISA
row,Binder,binding result
1,B3,no binding
2,B4,no binding
3,B5,no binding
4,B6,no binding
5,B7,no binding
6,B8,no binding
7,B13,no binding
8,B9,no binding
9,B10,no binding
10,B14,no binding
11,B11,no binding
12,B12,no binding

# Target: T4, SARS spike S1 subunit (severe acute respiratory syndrome …, UniProt P59594 14-667)
# T4 construct: domain: S1 subunit
# Assay: ELISA
row,Binder,binding result
1,B1,no binding
2,B2,no binding
3,B3,binds
4,B4,no binding
5,B5,no binding
6,B6,no binding
7,B7,no binding
8,B8,no binding
9,B13,no binding
10,B9,no binding
11,B10,binds
12,B14,binds
13,B11,no binding
14,B12,no binding

# Target: T5, MERS spike extracellular domain (Middle East respiratory syndrome …, UniProt K9N5Q8 18-1296)
# T5 construct: extracellular domain
# Assay: ELISA
row,Binder,binding result
1,B1,binds
2,B2,no binding
3,B3,binds
4,B4,no binding
5,B5,no binding
6,B6,no binding
7,B7,no binding
8,B8,no binding
9,B13,no binding
10,B9,no binding
11,B10,no binding
12,B14,no binding
13,B11,no binding
14,B12,no binding

# Target: T6, Human coronavirus OC43 spike extracellular domain (human coronavirus OC43, UniProt P36334 14-1297)
# T6 construct: extracellular domain
# Assay: ELISA
row,Binder,binding result
1,B3,binds
2,B4,no binding
3,B5,no binding
4,B6,no binding
5,B7,no binding
6,B8,no binding
7,B13,no binding
8,B9,no binding
9,B10,no binding
10,B14,no binding
11,B11,no binding
12,B12,no binding

# Target: spike glycoprotein of wild type SARS-CoV-2 virus (SARS-CoV-2, UniProt P0DTC2 14-1273)
# Assay: cell-based or functional assay
Binder,Neutralization by FMNT EC50 [nM],Neutralization by PRNT EC50 [nM]
B6,35.6,
B7,,110
B8,,70
B13,2.24,16.7
B10,,55.5
B14,22.5,133

# Target: T7, SARS-CoV-2 nucleocapsid protein (SARS-CoV-2, UniProt P0DTC9 1-419)
# T7 construct: also called N protein
# Assay: ELISA on recombinant protein
row,Binder,binding result
1,B15,binds
2,B16,binds
3,B17,binds
4,B18,binds
5,B19,binds
